According to patent publication JP2022142155A (dated 2022):

B1: 配列番号:36により表されるアミノ酸配列を含む抗HSA抗体 (VHH)
VHH: EVQLVESGGGFVQPGGSLRLSCVASGFTFERFDMGWVRQAPGKSLEWVSRFNSDDGRKSYADSVKGRFAISRDNAENTLYLQMNNLIPEDTAMYYCVKCQAYTSCTDAEDRGQGTQVTVSS
notes: Expressed in E. coli BL21(DE3) pLysS from pRA2(+) behind a vector-encoded leader; also called H01A; H01A; not shown: C-terminal His tag from vector pRA2(+) (Ni-NTA purification, anti-His detection)
B2: 配列番号:37により表されるアミノ酸配列を含む抗HSA抗体 (VHH)
VHH: EVQLVESGGGLVHPGGSLRLSCVASGSDVSSDTMGWFRRAPGKQRELVAAIAWGGSTHYAESVKGRFTISRDNAKNTVYLQLSNLKPEDTAVYLCNTRNYWGQGTQVTVSS
notes: Expressed in E. coli from pRA2(+); also called H08A; H08A; not shown: C-terminal His tag from vector pRA2(+) (Ni-NTA purification, anti-His detection)
B3: 配列番号:38により表されるアミノ酸配列を含む抗HSA抗体 (VHH)
VHH: QVQLVESGGGLVQTGGSLRLSCAASGRIVTVAAMGWFRQAPGKEREFVASISWSGRSRSYADSVKGRFTISRDNAKNTAYLQMSSLKPEDTGVYYCALGGNSYSSDYARYDYWGQGTQVTVSS
notes: Expressed in E. coli from pRA2(+); also called H10A; H10A; not shown: C-terminal His tag from vector pRA2(+) (Ni-NTA purification, anti-His detection)
B4: 配列番号:39により表されるアミノ酸配列を含む抗HSA抗体 (VHH)
VHH: QLQLVESGGGLVQAGGSLRLSCAASGRTFRFSAMGWFRQAPGKEREFAAAISWTGGTTAYAESVKGRFIISRDNAKNTVYLQMNSLKPEDTAVYYCAAGPIPSPASRYDDWGQGTQVTVSS
notes: Expressed in E. coli from pRA2(+); also called H14A; H14A; not shown: C-terminal His tag from vector pRA2(+) (Ni-NTA purification, anti-His detection)
B5: 配列番号:40により表されるアミノ酸配列を含む抗HSA抗体 (VHH)
VHH: QVQLVESGGGLVQAGKSLRLSCTASGSIPSIGVTGWHRQAPGKQRELVATISQGGHINYFESVKGRFTISRDNAKNTVYLQMNSLKPEDTGVYYCNAFWLPLRLNDYWGQGTQVTVSS
notes: Expressed in E. coli from pRA2(+); also called H32A; H32A; not shown: C-terminal His tag from vector pRA2(+) (Ni-NTA purification, anti-His detection)

Target: T1, ヒト血清アルブミン (human, UniProt P02768 25-609)
T1 construct: also called HSA; HSA
T1 sequence (P02768 25-609 limits assumed): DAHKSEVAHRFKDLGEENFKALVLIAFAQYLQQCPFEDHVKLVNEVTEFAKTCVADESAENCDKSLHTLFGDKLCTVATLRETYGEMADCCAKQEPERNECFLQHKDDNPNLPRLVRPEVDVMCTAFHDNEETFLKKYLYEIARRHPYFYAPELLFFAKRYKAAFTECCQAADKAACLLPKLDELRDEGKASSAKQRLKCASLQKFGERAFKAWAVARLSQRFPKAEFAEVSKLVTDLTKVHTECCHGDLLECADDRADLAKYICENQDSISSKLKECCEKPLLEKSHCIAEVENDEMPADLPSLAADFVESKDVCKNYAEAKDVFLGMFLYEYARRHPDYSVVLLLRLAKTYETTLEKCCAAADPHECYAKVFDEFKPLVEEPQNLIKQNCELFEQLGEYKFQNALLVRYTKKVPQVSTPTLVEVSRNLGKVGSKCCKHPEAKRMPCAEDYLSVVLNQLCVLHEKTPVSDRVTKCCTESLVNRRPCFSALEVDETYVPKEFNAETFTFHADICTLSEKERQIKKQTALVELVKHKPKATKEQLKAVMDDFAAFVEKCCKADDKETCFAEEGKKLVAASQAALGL
Test: SPR (Biacore T200), HSA amine-coupled on CM5 chip, VHH as analyte

First: B1
Second: B2
The Kd of the first is 2.7-fold lower: 22.9 nM for the first, 62.2 nM for the second. The first binds more tightly here.

Compared with B3, B4 is 2.4-fold higher in Kd: 124 nM for the first, 296 nM for the second. The first binds more tightly here.

Binder B5 has a Kd of 0.077 nM.
